1 protein from PMC6284806 (Nanotechnology, 2015) can be followed below.

This series deals with the molecule itself. Put plainly: AUC.

B1: Horse spleen apoferritin (natural protein, UniProt P02791 1-175, looked up)
chain: MSSQIRQNYSTEVEAAVNRLVNLYLRASYTYLSLGFYFDRDDVALEGVCHFFRELAEEKREGAERLLKMQNQRGGRALFQDLQKPSQDEWGTTLDAMKAAIVLEKSLNQALLDLHALGSAQADPHLCDFLESHFLDEEVKLIKKMGDHLTNIQRLVGSQAGLGEYLFERLTLKHD
For B1, the “stoichiometry N” value was found to be 24.
